Patent US20240026407A1, “MODIFICATION OF SAPONINS” (GLAXOSMITHKLINE BIOLOGICALS SA, priority 2020, published 2024)

B1: 1076 (protein, listed as Kribbella flavida)
chain: MSFRTRFGCLLAAVLLLTPLVPATGSPPATRETLQVRNLKTNNLTNPLGVPGTPPRLSWQLDGDRRGITQSRYQIRVASTPAKTARPDIWDSGVVRSTDSIEVPYGGPALTTGTAYHWTVRVWDDAGKASAWSPVATFETGPLRPGDWQGDWIGADNQPGPEWTDTTIDADVTLVKDALGVFFRGRGGVGYMWQLNQLTPDKPLLRPHVRQPGGGYVLLGEIPLAAGTDLKQRHHLRITVAGRTITTWLDGVQVDSRERSDHNAPGVVGFRTDGAEHGVVHSLKVTNVAGEVLVDTAFPAGDQTFPDGTVRAEGGLQVKGTTDLWLPGKPIPVFRKAISLPKAKKVASARIDAAAQGIYELTVNGRKAGDHQLAPGWTDYARRIQSQTYDVTKLLKSGANTLGAEVAPGWFTGNLAMFGPNKYGTDTAFIAQLRVTYTDGTADVFATDSSWQTAPGAVRVADLLNGESYDARRTASEWVPAQVRPSATAKIVPQTDQPVRVTQELKARAIPSPTPGAYLYDLGQNMVGIARLTLHGRPGQTVKIRYGEVLNPDGTLYTDNLRSAKATDHYTFATSRPETYQPRFTFHGFRYVEVSGLPTAPPASAIVGVVLGTDAEQVNEFRTNSPLVNQLHSNIVWGQRGNFLSIPTDTPARDERMGWTGDINVFARTAVYNLDSQAFLTKWLQDLRDTQRADGAYASVAPTVPNSFDGGMGNAGWADAGVNVPWTLWQAYGDTSVIRQHYASMTRYVDYLVASSNGLIRGGGDYGDWLNLDDPTPGELIGTSFVAKGARQLSQMAAAIGHTADAAKYQRVYEDVRAAFAARFVAADGKVGSDSQTGYILAFTSDLVPADRIAAAGEHFAATILRRDTHLSTGFLGVDGLLPVLTKIGRTDLAYRLLQNTSYPSWGYEIGKGATTIWERWNSINPDGTFNDVGMNSFNHYAYGAVGEWMYRTLAGLSAAEPGYRKALIAPTPGDGIDTAQLRHRTPYGEVGSQWRRLADGRFTLEVEVPANTTATVRLPAAEARQITESGRALSRAVGVSGVVDEGTTVALTVGSGNYRFAVRP
B2: 993 (protein)
chain: MKKLLLCLCFLAIGFLSNAKIKPTQLTCEYLKNPSVVDVLQPRLAWINVADAGERGQEQTAYQIRVASLKEKLENADLWDSGKVKDDASIRVKYDGEKLVSRQDCWWQVRVWDKNNEVSEWSEPAYWHMGLLNENDWTANWIGVPWQGEETLPKPASPAATLPGELPPPAPLFRKEFNATKQVEKAVAYVTGLGYFELYLNGEKVGDDVLVPNQTNYGKRPALTQQYIPLDDNFKEYKVMYLAYDISDQLVSGANTFGAILGNGFYNPSKHWALGYGTPRLLVQVHVAYTDGTEELIVSDESWKVSKSPILMDMVYYGEHYDARLEQDGWCSAGFDDSAWENAILRKAPEGKLVAHTAHPDKVYETLQPVRIEKMYNGNYKVDFGEEISGWVRLKNVEGPEGHKVKINYLSNNYSGDNSYIFKGEGKENYAARFNWFVFREVEIENWPGVLAPENICAEAINTYIEESAHFETSNPLFNQVNKIWKRSQTDNMHGGIASDCPHRERSPYTGDGQVACVTVMHNFDAQNFYYKWIHDMIGAQNVKTGYVPNGAPWQPGCGGGVAWGAAINIIPWEFYVHYGAVDMLEEAYEPMKEYVRYMQTWVNNEGIMNSQRVGLDGNVLQWFNLGEWVTPGDLPPDSLVHTFYFWRCADITAKTAEILGKRKEAKRNRELAETTQSAFHKCFFDAEKGTYGNAGANIFALKMGVPENEYQRVINALKANIKKNKGHLDTGIFGTQFFFEVLSENGLHELAYEAMNKKEEPGYGRWLTLGATTSWENWNTDGSHNHPMFGGGLVWLYRKLAGMQADEKNPGYRHIIFHPQPIKELEFAEYFNKTPYGKAGIKWQQTEGKLSVGVTVPVGCTATVILPGGHFLADGKAMEKVAEVQLVSQKEDELIIKVGAGNYQFSN
modifications: Draconibacterium orientale
B3: 1077 (protein, listed as Bacillus sp.)
chain: MAGRNWNASWIWGGQEESPRNEWRCFRGSFDAPASVEGPAMLHITADSRYVLFVNGEQVGRGPVRSWPKEQFYDSYDIGGQLRPGVRNTIAVLVLHFGVSNFYYLRGRGGLIAEIEADGRTLAATDAAWRTERLGGQRSNSPRMACQQGFGEVIDARELAEDWALPAFDDGGWAQARSIGPAGTAPWTSLVPRDIPFLTEEKLYPASIQSLSRVKAPKYAAALDLRNQMVPESVNHANPVSYCGYVATILTLETSGVVTLGFPTGVRGSGVWVDGVLQTEWTGVQPERYYSLNLAAGEHLVLVDITSSDHGGSSHFAIDSEAAFTLRSPAGDNGVPLATIGTFDQSEYIDHRPGRRMQTDHPDYRALPEAAPTAAALEAFASWVKPFEPSLYTEENVFGSNVWRTLAERRAVPRSVLNAILPVPEPGVLPVFEDGDCELVIDLGAERSGFIGFELEAPAGTIIDAYGVEYMREGYTQHTYGLDNTFRYICREGRQSYVSPVRRGFRYLFLTVRGNSAPVKLHEIYIRQSTYPVAEQGSFRCSDALLNATWEISRHTTRLCMEDTFVDCPSYEQVFWVGDSRNEALVNYYVFGETEIVERCLNLVPGSADETPLYLDQVPSAWSSVIPNWTFFWILACREYAAHTGNEAFAARIWPAVKHTLTHYLEHIDDSGLLNMAGWNLLDWAPIDQPNEGIVTHQNLFLVKALRDSRALAAAAGATEEADAFAARADLLAETINAVLWDEEKRAYIDCIHADGRRSDVYSMQTQVVAYLCGVAQGEREAVIEGYLSSPPPAFVQIGSPFMSFFYYEALEKAGRQTLMLDDIRRNYGQMLRYDATTCWEMYPNFAENRSNPDMLTRSHCHAWSAAPGYFLGSSILGVKRGADGWRTVDIAPQPCDLTWAEGVVPLPQGGHIAVSWEFVSAGKLKLRIEAPEDIEVNVTLPEGIEGEVTQVKYMS
B4: 992 (protein, listed as Roseburia intestinalis)
chain: MGKIYAAKTNHITNPIGFNMDSIAFSWKVKGCRGQEQKYARIVISKNKTFTDICYDTGETELDSLSTRVEFEIQPYTRYYWKVIVTTDVEEVIESDVQFFETAKMDEPWTGRWITCDSSQERHPIFSKRIEPKKEVKSARLYICGLGLYEAYFLGENKENPKKIGDEYLTPYCNNYDRWIQYQTYDITEQAERGGVLSVLLGNGWYKGRFGFNDPEREAYYGDEWKLIAEVHIEYKDGTKDVISSDETWSVTRSNLWFSNIYDGERRDDTLPPVEESPARIAKAPKGRLMERLSLPVKVQEEMKPAELIHTPAGEDVFDLGQEITGIFQLRVNEPSGTIIRIQTGEILQDGCFYNENLRTALSEYVYVSDGMEKVIIPHFTYYGYRYVKVSGVTNLSCEDFMAIVLYSDYESIGTVETGSELVNKLISNIEWGMKGNFLDVPTDCPQRDERMGWTGDTQVFSATASYLADTYAFYRKYLYDLYQEQLLAGGMVPEIVPTFGPTKCSCAWGDAACIIPWNVYLFSGDKTILENQIESMKAWVDYIRRIDGDHHGWRQVFHYGDWLALDRTGAAANSVYGATDEAYIADIYYAASAQIVAKAAEVLGLEETRQEYHKIADRQWQVVKEEYFTATGRCAVKTQTGLILALKYHLSENEELTREMLKKLLRDNKNKLNTGFVGTPLLCNVLTDHGMTDAAYRLLLNEEYPGWLHEVKLGATTVWERWNSLDESGHVSSTGMNSLNHYSYGAILEWIFRHAAGIDVMEQSPGGKVMRISPKVNSELKYVKAVYDSATGCYQCGWEILEGNKITITVTVPFGGKAEVVLPYAPECIYEDIENPLFEAVENGICHVKAGEYEVVYEASEPLKKRYSIDSTMEELLNHPDIRAFLSQMVEVDMIPDIAYGLSLRDVAKTFAGEIKPDEAQMLDKALAKF

assay: Experiment 6-1: screening of rhamnosidases for derhamnosylation of saponins in treated bark extract (2%), QS-17 2296 to QS-18 2150 (PAR %); assay type: biochemical, Quillaja saponaria; conditions: TBE 2%, pH 7.5, 30 degC, 18 h; TIC peak area ratio percent of rhamnosylated starting saponin to derhamnosylated product, LCMS/MS; negative controls 4.876, 5.225

| Molecule | QS-17 (PAR %) |
| --- | --- |
| B1 | 3.766% |
| B2 | 3.836% |
| B3 | 3.964% |
| B4 | 0.000% |

assay: Experiment 6-1: screening of rhamnosidases for derhamnosylation of saponins in treated bark extract (2%), desglucosyl-QS-17 2134 to QS-21 1988 (PAR %); assay type: biochemical, Quillaja saponaria; conditions: TBE 2%, pH 7.5, 30 degC, 18 h; TIC peak area ratio percent, LCMS/MS; negative controls 2.719, 2.158

| Molecule | Peak75 (PAR %) |
| --- | --- |
| B1 | 1.961% |
| B2 | 2.211% |
| B3 | 2.138% |
| B4 | 0.000% |

assay: Experiment 6-1: screening of rhamnosidases for derhamnosylation of saponins in treated bark extract (2%), QS-17 2310 to QS-18 2164 (PAR %); assay type: biochemical, Quillaja saponaria; conditions: TBE 2%, pH 7.5, 30 degC, 18 h; TIC peak area ratio percent, LCMS/MS; negative controls 3.061, 2.429

| Molecule | Peak57 (PAR %) |
| --- | --- |
| B1 | 1.295% |
| B2 | 1.129% |
| B3 | 2.532% |
| B4 | 0.000% |

assay: Experiment 6-2: screening of rhamnosidases for derhamnosylation of saponins in treated bark extract (25%), relative % of Left, Middle and Right Peak by UV HPLC; assay type: biochemical, Quillaja saponaria; conditions: TBE 25%, pH 7.4, 19.5 h, mainly QS-17 family, negative control 24%

| Molecule | Left Peak |
| --- | --- |
| B1 | 22% |
| B2 | 18% |
| B3 | 23% |
| B4 | 7% |

same assay, conditions: TBE 25%, pH 7.4, 19.5 h, mainly QS-18 and desglucosyl-QS-17 family, negative control 50%

| Molecule | Middle Peak |
| --- | --- |
| B1 | 52% |
| B2 | 56% |
| B3 | 51% |
| B4 | 62% |

same assay, conditions: TBE 25%, pH 7.4, 19.5 h, mainly QS-21 family, negative control 26%

| Molecule | Right Peak |
| --- | --- |
| B1 | 26% |
| B2 | 27% |
| B3 | 26% |
| B4 | 31% |

assay: Experiment 6-3: screening of rhamnosidases for derhamnosylation of saponins in crude bark extract (80%), relative % of Left, Middle and Right Peak by UV HPLC; assay type: biochemical, Quillaja saponaria; conditions: CBE 80%, pH 7.4, 30 degC, 19.5 h, mainly QS-17 family, negative control 27%
Method in brief: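 Clarified lysates of expressed rhamnosidase variants were incubated with crude bark extract (pH 7.4, final 80%) at 30 degC with shaking for 19.5 h, then quenched with MeCN+2% AcOH. UV HPLC gave relative % of Left (QS-17), Middle (QS-18/desglucosyl-QS-17) and Right (QS-21) peaks.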

| Molecule | Left Peak |
| --- | --- |
| B1 | 26% |
| B2 | 25% |
| B3 | 26% |
| B4 | 21% |

same assay, conditions: CBE 80%, pH 7.4, 30 degC, 19.5 h, mainly QS-18 and desglucosyl-QS-17 family, negative control 48%

| Molecule | Middle Peak |
| --- | --- |
| B1 | 48% |
| B2 | 49% |
| B3 | 48% |
| B4 | 49% |

same assay, conditions: CBE 80%, pH 7.4, 30 degC, 19.5 h, mainly QS-21 family, negative control 26%

| Molecule | Right Peak |
| --- | --- |
| B1 | 27% |
| B2 | 26% |
| B3 | 27% |
| B4 | 30% |

assay: Experiment 6-1: specificity of rhamnosidases towards other rhamnose residues (C3 saccharide rhamnose, C28 saccharide rhamnose); assay type: biochemical, Quillaja saponaria; conditions: TBE 2%, pH 7.5, 30 degC, 18 h; LCMS/MS; negative controls 0.18, 0.17

| Molecule | ratio PP/QS-21 |
| --- | --- |
| B1 | 0.19 |
| B2 | 0.18 |
| B3 | 0.18 |
| B4 | 0.20 |
